Here are results for one substance from US20110243941A1.

For the assay, the target named is wild type CH1-CH3 Fc fusion protein displayed on yeast (pYD-CH1) (human). Briefly: FACS titration 1.4 to 0.0006 µM on yeast-displayed Fc, MFI, nonlinear regression.

Substance “soluble FcγRIIIA tetrameric complex (biotinylated FcγRIIIA-AVITAG on streptavidin-phycoerythrin) (from UniProt P08637 17-203) (receptor)” gave a Kd of 6 nM.
